Experimental data: patent publication US20180194839A1 (Novartis, published 2018)

Tests used:
Experiment in all cases: ELISA, coated cytokine, Ab 10 µg/ml
[1] = target: T1, recombinant mouse IL-17A (SEQ ID NO: 83) (mouse, UniProt Q62386 26-158)
T1 construct: also called mIL-17A; rmIL-17A
T1 sequence: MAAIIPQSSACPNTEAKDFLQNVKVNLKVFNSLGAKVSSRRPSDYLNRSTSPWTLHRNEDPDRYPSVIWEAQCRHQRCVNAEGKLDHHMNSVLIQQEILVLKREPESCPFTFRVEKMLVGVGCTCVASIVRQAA

[2] = target: T2, recombinant mouse IL-17F (R&D Systems Cat#2057-IL/CF) (mouse, UniProt Q7TNI7 29-161)
T2 construct: also called mIL-17F
T2 sequence (looked up): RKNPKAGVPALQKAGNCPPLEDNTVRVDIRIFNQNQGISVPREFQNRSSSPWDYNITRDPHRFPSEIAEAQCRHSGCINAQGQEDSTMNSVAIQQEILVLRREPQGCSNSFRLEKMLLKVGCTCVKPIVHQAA

[3] = target: T3, recombinant mouse IL-6 (R&D Systems Cat#406-ML-010/CF) (mouse, UniProt P08505 25-211)
T3 construct: coated at 0.5 µg/ml; also called mIL-6
T3 sequence (looked up): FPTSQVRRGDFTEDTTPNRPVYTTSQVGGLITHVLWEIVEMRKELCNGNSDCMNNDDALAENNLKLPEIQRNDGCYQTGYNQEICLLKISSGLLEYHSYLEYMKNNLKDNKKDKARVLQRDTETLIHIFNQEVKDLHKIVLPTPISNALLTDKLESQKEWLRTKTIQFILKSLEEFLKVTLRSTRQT

[4] = target: T4, recombinant mouse IL-12 (R&D Systems Cat#419-ML-010/CF) (mouse, UniProt P43431 23-215; P43432 23-335)
T4 construct: coated at 0.5 µg/ml; also called mIL-12
T4 sequence (looked up) 1: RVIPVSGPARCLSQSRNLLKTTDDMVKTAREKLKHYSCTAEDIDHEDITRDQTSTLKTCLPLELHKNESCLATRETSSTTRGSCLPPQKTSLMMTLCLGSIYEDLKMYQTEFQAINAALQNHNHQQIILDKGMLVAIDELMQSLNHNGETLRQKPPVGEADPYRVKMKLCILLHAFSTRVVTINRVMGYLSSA
T4 sequence (looked up) 2: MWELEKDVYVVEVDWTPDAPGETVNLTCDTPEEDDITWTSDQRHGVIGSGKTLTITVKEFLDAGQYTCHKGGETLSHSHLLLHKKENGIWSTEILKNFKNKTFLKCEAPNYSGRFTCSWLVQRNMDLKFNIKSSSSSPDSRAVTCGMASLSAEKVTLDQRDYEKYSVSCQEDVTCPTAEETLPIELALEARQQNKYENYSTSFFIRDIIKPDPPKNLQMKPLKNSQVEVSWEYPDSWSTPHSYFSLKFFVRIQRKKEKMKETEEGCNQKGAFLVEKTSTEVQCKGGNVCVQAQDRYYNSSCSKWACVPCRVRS

[5] = target: T5, recombinant mouse IL-23 (R&D Systems Cat#1887-ML) (mouse, UniProt Q9EQ14 22-196; P43432 23-335)
T5 construct: also called mIL-23
T5 sequence (looked up) 1: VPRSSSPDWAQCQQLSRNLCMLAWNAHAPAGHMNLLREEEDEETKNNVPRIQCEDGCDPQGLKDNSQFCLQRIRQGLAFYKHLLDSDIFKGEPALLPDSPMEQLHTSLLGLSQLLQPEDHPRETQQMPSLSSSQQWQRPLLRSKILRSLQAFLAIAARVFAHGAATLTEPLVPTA
T5 sequence (looked up) 2: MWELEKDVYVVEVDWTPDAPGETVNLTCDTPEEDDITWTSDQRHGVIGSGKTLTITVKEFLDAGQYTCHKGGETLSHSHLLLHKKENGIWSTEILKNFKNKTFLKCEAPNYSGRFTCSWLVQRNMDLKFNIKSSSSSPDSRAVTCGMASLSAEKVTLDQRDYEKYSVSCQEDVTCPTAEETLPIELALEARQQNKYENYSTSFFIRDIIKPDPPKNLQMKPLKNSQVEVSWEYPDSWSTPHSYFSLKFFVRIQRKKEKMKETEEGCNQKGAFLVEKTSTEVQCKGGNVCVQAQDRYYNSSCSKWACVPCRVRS

[6] = target: T6, recombinant mouse IFN-γ (R&D Systems Cat#485-MT) (mouse, UniProt P01580 23-155)
T6 construct: also called mIFN-γ
T6 sequence (looked up): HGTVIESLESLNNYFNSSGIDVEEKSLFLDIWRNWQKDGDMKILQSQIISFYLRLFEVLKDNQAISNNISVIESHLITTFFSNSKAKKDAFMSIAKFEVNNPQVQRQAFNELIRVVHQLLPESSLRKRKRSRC

[7] = target: T7, recombinant rat IL-4 (R&D Systems Cat#504-RL/CF) (rat, UniProt P20096 25-147, limits assumed)
T7 sequence (looked up): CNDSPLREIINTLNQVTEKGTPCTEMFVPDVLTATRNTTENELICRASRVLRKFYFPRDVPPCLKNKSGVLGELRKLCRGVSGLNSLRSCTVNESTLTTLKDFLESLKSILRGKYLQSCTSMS

[8] = target: T8, recombinant rat IL-6 (R&D Systems Cat#506-RL-010) (rat, UniProt P20607 25-211)
T8 sequence (looked up): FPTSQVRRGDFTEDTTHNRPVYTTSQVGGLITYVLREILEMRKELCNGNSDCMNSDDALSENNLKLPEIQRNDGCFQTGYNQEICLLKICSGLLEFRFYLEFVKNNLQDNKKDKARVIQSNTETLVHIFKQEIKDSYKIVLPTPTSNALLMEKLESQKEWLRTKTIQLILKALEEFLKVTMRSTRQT

[9] = target: recombinant rat IL-12 (R&D Systems Cat#1760-RL/CF) (rat)
[10] = target: recombinant rat IL-23 (R&D Systems Cat#3136-RL-010/CF) (rat)
[11] = target: T9, recombinant rat TNFα (R&D Systems Cat#510-RT/CF) (rat, UniProt P16599 80-235)
T9 sequence (looked up): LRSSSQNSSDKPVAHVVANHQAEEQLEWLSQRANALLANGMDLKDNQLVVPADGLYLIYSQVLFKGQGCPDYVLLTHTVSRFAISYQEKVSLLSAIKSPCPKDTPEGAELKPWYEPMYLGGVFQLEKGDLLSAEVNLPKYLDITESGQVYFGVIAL

Binder	O.D. [1] [O.D.]	O.D. [2] [O.D.]	O.D. [3] [O.D.]	O.D. [4] [O.D.]	O.D. [5] [O.D.]	O.D. [6] [O.D.]	O.D. [7] [O.D.]	O.D. [8] [O.D.]	O.D. [9] [O.D.]	O.D. [10] [O.D.]	O.D. [11] [O.D.]
XAB4 (antibody, human IgG1, kappa, V domains shown, also called MB435 N56Q) VH: EVQLVESGGDLVQPGGSLRLSCAASGFTFSSYWMSWVRQAPGKGLEWVANIKQDGSEKYYVDSVKGRFTISRDNAKNSLYLQMNSLRAEDTAVYYCARDRGSLYYWGQGTLVTVSS VL: AIQLTQSPSSLSASVGDRVTITCRPSQGINWELAWYQQKPGKAPKLLIYDASSLEQGVPSRFSGSGSGTDFTLTISSLQPEDFATYYCQQFNSYPLTFGGGTKVEIKR	3.29	0.034	0.031	0.035	0.058	0.038	0.026	0.021	0.009	0.023	0.02
XAB1 (antibody, human IgG1, kappa, V domains shown, human IgG1/kappa monoclonal antibody; also called parental XAB1; XAB1 IgG) VH: EVQLVESGGDLVQPGGSLRLSCAASGFTFSSYWMSWVRQAPGKGLEWVANIKQDGSEKYYVDSVKGRFTISRDNAKNSLYLQMNSLRAEDTAVYYCARDRGSLYYWGQGTLVTVSS VL: AIQLTQSPSSLSASVGDRVTITCRPSQGIISALAWYQQKPGKAPKLLIYDASSLENGVPSRFSGSGSGTDFTLTISSLQPEDFATYYCQQFNSYPLTFGGGTKVEIKR	2.97	-0.058	0.038	-0.005	0.009	0.048	0.017	0	-0.007	0.011	0.003
